Assay [1] has as its target T1, association of L HBsAg with HBcAg (Hepatitis B virus genotype D subtype adw, UniProt P03147).
T1 construct: Purification of Particles Comprising Full-Length or Truncated HBcAg; made in house; host or cells: HBcAg: E. coli RB 791; L HBsAg: in vitro translation in rabbit reticulocyte lysate with canine pancreatic microsomal membranes
Kind of assay: biochemical. In kind it is binding. As to conditions: for IC50: IC50: concentration of peptide required to inhibit the binding of L HBsAg to HBcAg at a half maximal level; for IC50 / IC50: concentration of peptide required to inhibit the binding of L HBsAg to HBcAg at a half maximal level: free peptide, HBcAg-coated wells. The protocol:
Inhibitors of the Association of HBsAg with HBcAg. The assay system developed for inhibitors of the interaction between HBsAg and HBcAg involved incubating purified membrane-inserted ^35S-labeled L polypeptide in HBcAg-coated wells and quantitating bound protein by scintillation counting. […] The principal target for polyclonal antibodies to the native, particulate S HBsAg resides between as 110 and aa 150 (31-33). […] However, large molecules, such as immunoglobulins, can cause stearic hindrance over a considerable distance in any compound to which they bind.
Inhibition of Membrane-Inserted L-Protein Binding to HBcAg by Antibodies and Peptides. Canine pancreatic microsomal membranes containing labeled protein were purified by layering the translation mixture (60 μl) on a 4-ml step gradient of 1-ml intervals of 77% (wt/vol), 30%, 20%, and 10% sucrose containing 20 mM Hepes (adjusted to pH 7.5 with NaOH)/2 mM dithiothreitol for fractionation by centrifugation (50,000 rpm, 2 hr at 4° C.; Sorvall model TsT 60.4 rotor). […] Sucrose gradient-purified L protein (4 μl) was diluted with NET-gel buffer (100 μl) containing various dilutions of either antibody or peptide for inhibition assays. Mixtures were incubated in HBcAg-coated wells (as in the paragraph Isolation of Phage that Bind to HBcAg) for 2 ½ hr at 4° C. and washed five times with NET-gel buffer with 10-min intervals. Wells were placed in scintillation vials containing Ecoscint A (5 ml; National Diagnostics) for quantitation of radioactivity.

For assay [2], the target named is hepatitis B virus core antigen (HBcAg) (hepatitis B virus). In words: peptide inhibition of 35S-labeled L HBsAg binding to HBcAg-coated wells.
hepatitis B virus core antigen (HBcAg) (hepatitis B virus), sequence (P03147 whole entry): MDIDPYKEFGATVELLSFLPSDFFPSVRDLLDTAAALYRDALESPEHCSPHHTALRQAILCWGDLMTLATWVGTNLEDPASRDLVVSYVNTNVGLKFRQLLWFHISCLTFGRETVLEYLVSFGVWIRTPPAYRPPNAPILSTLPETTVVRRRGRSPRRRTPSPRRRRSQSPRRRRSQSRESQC
Assay [3] shares this target. The description is as above. The source holds these as a separate data set.
The target in another assay is T2, HBcAg (Hepatitis B virus genotype D subtype adw, UniProt P03147).
T2 construct: Purification of Particles Comprising Full-Length or Truncated HBcAg; made in house; host or cells: E. coli RB 791
T2 sequence (P03147 whole entry, the tested form may be a part): as the sequence (P03147 whole entry) above
In words: Peptide inhibition of fusion phage binding to HBcAg-coated wells. The protocol: Phage-Binding Assay in Solution. […] Aliquots (100 μl) of each mixture were transferred to polystyrene wells (no. 2585, Costar) that had been coated with HBcAg (20 μg/ml in PBS; 125 μl per well). After 1 hr at 6° C. the wells were washed 10 times with TBS/BSA at 0.2 mg/ml. Bound phage were recovered and titered as described in the previous section. All assays were done in triplicate. The HBcAg concentration range was 1.58-50 μM for experiments with phage B2 and B3 and was 0.63-20 μM for experiments with phage B4. For peptide inhibition experiments, fusion phage (10^9 pfu/ml; 200 μl) were incubated with various concentrations of peptide (1 mM-10 nM) in HBcAg-coated wells for 90 min at 6° C.

The target of assay [4] is hepatitis B virus core antigen (HBcAg) (hepatitis B virus). Kind of assay: phage-binding assay in solution: phage incubated with HBcAg, free phage caught on HBcAg-coated wells and titered.

Where “and” joins values, the source holds several entries; their conditions need not be identical. Identical values can stand only once. Like-named read-outs stand apart in the source and are kept apart here. Non-standard residues stand in square brackets, D forms with d. Residues, ends and D or L forms follow the SMILES beside them. No end group written: not given here. βAla = NCCC(=O)O Some results are limits rather than exact numbers.

T1 sequence (P03147 whole entry, the tested form may be a part): as the sequence (P03147 whole entry) above

On to `CSCC[C@H](NC(=O)[C@H](CCCNC(=N)N)NC(=O)CNC(=O)[C@H](CC(C)C)NC(=O)[C@H](CC(C)C)NC(=O)[C@H](CO)NC(=O)[C@H](CCCNC(=N)N)NC(=O)[C@H](Cc1cnc[nH]1)NC(=O)[C@@H](N)CCSC)C(=O)N[C@@H](CCCCN)C(=O)NCC(=O)N[C@@H](C)C(=O)O`, for which the concentration for half-maximal inhibition (IC50) (as a rule, the point on the concentration scale where inhibition reaches its midpoint) in assay [1] came out at 0.8 ± 0.1 µM.

Turning to peptide LDPAFR, the 50% inhibitory concentration (IC50) in assay [2] is 360 µM.

SLLGRMKG yielded an IC50 in assay [1] of 6.4 ± 0.7 µM.

In turn, `CSCC[C@H](NC(=O)[C@H](CCCNC(=N)N)NC(=O)CNC(=O)[C@H](CC(C)C)NC(=O)[C@H](CC(C)C)NC(=O)[C@H](CO)NC(=O)[C@H](CCCNC(=N)N)NC(=O)[C@H](Cc1c[nH]cn1)NC(=O)[C@@H](N)CCSC)C(=O)N[C@@H](CCCCN)C(=O)NCC(=O)N[C@@H](C)C(=O)NCC(=O)NCCC(=O)NCC(=O)N[C@@H](CS)C(=O)O` showed a concentration for half-maximal inhibition (IC50) in assay [1] of 3.8 ± 0.69 µM.

Molecule `CSCC[C@H](NC(=O)[C@H](CCCNC(=N)N)NC(=O)CNC(=O)[C@H](CC(C)C)NC(=O)[C@H](CC(C)C)NC(=O)[C@H](CO)NC(=O)CN)C(=O)N[C@@H](CCCCN)C(=O)NCC(=O)N[C@@H](C)C(=O)O` came in with an IC50 in assay [1] of 0.79 ± 0.23 µM.

peptide AcSLLGRMKG registered a 50% inhibitory concentration (IC50) in assay [3] of 26.2 µM.

For LDPAFR [LDPAFR, reference compound], the IC50 in assay [1] is roughly 360 µM.

Consider Ac-SLLGRMKG, for which the IC50 in assay [1] was determined as 26.2 ± 5 µM.

In the case of LLGRM (not fully specified), the “IC50: concentration of peptide required to inhibit the binding of L HBsAg to HBcAg at a half maximal level” value in assay [1] is “no”.

For peptide ALLGRMKG, the half-inhibitory concentration (IC50) worked out at 10 µM in assay [2] and 11 µM in assay [3].

peptide CLLGRMKC came in with an IC50 in assay [3] of 652 µM.

For peptide SLLGRMK, in assay [3], the IC50 was 40.7 µM.

For the molecule GRMKG (not fully specified), the “inhibition of binding of fusion phage to HBcAg” value with HBcAg is recorded as “inability to inhibit”. Also, in assay [1], the “inhibition of the reaction between L HBsAg and HBcAg (in words)” value is given as “no inhibitory properties”; the “IC50: concentration of peptide required to inhibit the binding of L HBsAg to HBcAg at a half maximal level” value is given as “no^2”.

ALLPRMKG: the “IC50: concentration of peptide required to inhibit the binding of L HBsAg to HBcAg at a half maximal level” value in assay [1] is “no”.

On to `CSCC[C@H](NC(=O)[C@H](CCCNC(=N)N)NC(=O)CNC(=O)[C@H](CC(C)C)NC(=O)[C@H](CC(C)C)NC(=O)[C@H](CO)NC(=O)CNC(=O)[C@@H](N)CC(=O)O)C(=O)N[C@@H](CCCCN)C(=O)NCC(=O)N[C@@H](C)C(=O)N[C@@H](C)C(=O)O`, for which the IC50 in assay [1] was 3 ± 0.4 µM.

Turning to HRSLLGRMKGA, the half-maximal inhibitory concentration (IC50) in assay [1] came to 0.5 ± 0.04 µM.

In the case of “ALLTRILG (HBV Core Antigen Binding Peptide) [peptide including aa 21-27 of the S region, reference compound]”, the “inhibition of binding of fusion phage to HBcAg” value with HBcAg is “inability to inhibit”. Besides, the “inhibition of the reaction between L HBsAg and HBcAg (in words)” value in assay [1] was “no inhibitory properties”.

peptide SLLGRMKG(β-A)C: the concentration for half-maximal inhibition (IC50) in assay [3] was 1.8 µM.

As to LGRMKG [LGRMKG], the IC50 in assay [1] was 980 ± 157 µM.

In assay [1], SLLGRMKGA gave a half-maximal inhibitory concentration (IC50) of 2.4 ± 0.2 µM.

On to peptide LLGRMKG, for which the IC50 in assay [3] was 46.2 µM.

In assay [1], `CSCC[C@H](NC(=O)[C@H](CCCNC(=N)N)NC(=O)CNC(=O)[C@H](CC(C)C)NC(=O)[C@H](CC(C)C)NC(=O)[C@H](CO)NC(=O)CNC(=O)[C@H](CC(=O)O)NC(=O)[C@H](C)N)C(=O)N[C@@H](CCCCN)C(=O)NCC(=O)N[C@@H](C)C(=O)N[C@@H](C)C(=O)NCC(=O)O` gave a half-inhibitory concentration (IC50) of 4.5 ± 0.8 µM.

In assay [1], `CSCC[C@H](NC(=O)[C@H](CCCNC(=N)N)NC(=O)CNC(=O)[C@H](CC(C)C)NC(=O)[C@H](CC(C)C)NC(=O)[C@@H](N)CO)C(=O)N[C@@H](CCCCN)C(=O)NCC(=O)NCCC(=O)N[C@@H](CS)C(=O)O` (H-SLLGRMKG[βAla]C-OH) came in with a 50% inhibitory concentration (IC50) of 1.8 ± 0.4 µM.

Take `CSCC[C@H](NC(=O)[C@H](CCCNC(=N)N)NC(=O)CNC(=O)[C@H](CC(C)C)NC(=O)[C@H](CC(C)C)NC(=O)[C@H](CO)NC(=O)[C@@H](N)CCCNC(=N)N)C(=O)N[C@@H](CCCCN)C(=O)NCC(=O)N[C@@H](C)C(=O)O`: the IC50 in assay [1] was 0.29 ± 0.02 µM. The “fold improvement over the original ALLGRMKG peptide” value in assay [1] (inhibition of L HBsAg binding to HBcAg) was greater than 40 fold.

The molecule peptide SLLGRMKG returned an IC50 in assay [3] of 6.4 µM.

Consider `CSCC[C@H](NC(=O)[C@H](CCCNC(=N)N)NC(=O)CNC(=O)[C@H](CC(C)C)NC(=O)[C@H](CC(C)C)NC(=O)[C@H](CO)NC(=O)[C@@H](N)CCCNC(=N)N)C(=O)N[C@@H](CCCCN)C(=O)NCC(=O)N[C@@H](C)C(=O)NCCC(=O)N[C@@H](CS)C(=O)O`, for which the IC50 in assay [1] amounted to 0.29 ± 0.03 µM.

In the case of ALLGRMKG, the IC50 in assay [1] is 10 µM and 11 µM.

In turn, LLGRMKG [LLGRMKG] returned an IC50 in assay [1] of 46.2 ± 7.4 µM.

With peptide LGRMKG, the IC50 in assay [3] amounted to 980 µM.

In assay [1], SLLGRMK [SLLGRMK] returned an IC50 of 40.7 ± 4.8 µM.

With ADGSLLGRMKPA (peptide, not shown: large carriers) [phage 1], the KD^Rel (relative dissociation constant) in assay [4] was determined as 0.322 µM.

For the molecule ADGSRSSLLGRMKGA (peptide, not shown: large carriers) [phage 4A-1], the KD^Rel (relative dissociation constant) in assay [4] was found to be 0.00196 µM.

The molecule ADGPRSSLLGRMKGA (peptide, not shown: large carriers) [phage 4A-2] gave a KD^Rel (relative dissociation constant) in assay [4] of 0.00084 µM.

ADGALLGRMKPA (peptide, not shown: large carriers) [phage 2] showed a KD^Rel (relative dissociation constant) in assay [4] of 0.767 µM.

In the case of ADRSLLGRMKGA (peptide, not shown: large carriers) [phage 2A-8], the KD^Rel (relative dissociation constant) in assay [4] is 0.00109 µM.

For the molecule ADGHRSSLLGRMKGA (peptide, not shown: large carriers) [phage 4B-7], the KD^Rel (relative dissociation constant) in assay [4] is 0.0014 µM.

Regarding ADGYQRSLLGRMKGA (peptide, not shown: large carriers) [phage 4A-28], in assay [4], the KD^Rel (relative dissociation constant) turned out to be 0.00088 µM.

In turn, ADGTQRSLLGRMKGA (peptide, not shown: large carriers) [phage 4A-26] returned a KD^Rel (relative dissociation constant) in assay [4] of 0.00084 µM.

In the case of ADGALLGRMKRA (peptide, not shown: large carriers) [phage 6], the KD^Rel (relative dissociation constant) in assay [4] was 0.181 µM.

In turn, ADGTLLGRMKLA (peptide, not shown: large carriers) [phage 4] gave a KD^Rel (relative dissociation constant) in assay [4] of 0.02 µM.

The molecule ADGAHRSLLGRMKGA (peptide, not shown: large carriers) [phage 4A-3] registered a KD^Rel (relative dissociation constant) in assay [4] of 0.00094 µM.

These data come from patent US6544520B1, “Hepatitis B virus inhibitors” (priority 1996, dated 2003).
